Assay results taken from the supplement of paper PMC9170038.

test system: MS2 coat protein; assay: apparent KD of MS2 coat protein, switch ON state; designed switch direction (-1 OFF switch, 1 ON switch): 1; higher = weaker reporter binding; conditions: FMN input: 0 or 200 uM; Eterna round: R93 (includes R88 designs)
Method in brief: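 The buffer was 100 mM Tris-HCl pH 7.5 with 80 mM KCl and 4 mM MgCl2, used without or with constant ligand. In it, RNA switches transcribed on-chip from Illumina sequencing clusters were titrated with SNAP-549-labelled MS2 coat protein in twofold steps from 0.7 or 1.5 nM to 3 µM. Apparent KD for each design is the median of its normalised cluster binding-curve fits.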

Row | Sequence | apparent KD of MS2 coat protein
1 | AAAAGACAUGAGGAUCACCCAUGUCAAGACAUAGGAGGAUAUGUCAUGAAAAAAGACUUGACAGAAGGCCUUUGUC [SS1 - 51] | 16.7 nM
2 | AGAAAUAAAAGACAGGAUAUCCUUAAGAAAACAUGAGGAUCACCCAUGUAAAAGAAAAUAAAAAGGGAGAAGGGUCAAAAUAAGA [Mat - Same State 2 - JL mod - D80] | 18 nM
3 | UGGAGACAUGAGGAUCACCCAUGUGAGAAGAGGCGAGGAUAUCGAAAGAAAGAAGAGAAACGAGAAGGCGCGAGGA [salish99-SS1-039] | 47.6 nM
4 | AUAUGCAUAGACAAGGAUAUCGGUCUAGAAACAUGAGGAUCACCCAUGUAAGUGAAAAUCUGUAAUGAGAAGGUGUUGUUGGGUU [Isan] | 75 nM
5 | AACAAUCUAUCUGAGGAUAUCAUGACAAAGACAUGAGGAUCACCCAUGUCCAGGAAAACUGGUUAUGAGAAGGCAGAUAGAUUGA [SS2: 1112] | 9.7 nM
6 | AAUAACAAAAGAAAGGAUAUAUAAACAGGAACAUGAGGAUCACCCAUGUGCCGCCAAGGCGGAUAAUAGAAGGUUCACAUGCAUA [Default title] | 47 nM
7 | AACAAUCUAUCUGAGGAUAUCAUGUGAAAGACAUGAGGAUCACCCAUGUUGCAGGAAACUGCUCAUGAGAAGGCAGAUAGAUUGA [SS2: 1126] | 11.5 nM
8 | AAUAUACAUGAGGAUCACCCAUGUUAGGUGGGACUAGGAUAUCAAAAGAAAGAGUAAGAAUGAGAAGGAGUAGAAA [JR_SS001_Sub016] | 145 nM
9 | GAAAUACAUGAGGAUCACCCAUGUUAGGUGGGUCAAGGAUAUUGAUAUAAAUAAAAAACUCGAGAAGGUGAAUAAA [JR_SS001_Sub201] | 229 nM
10 | AAUAUACAUGAGGAUCACCCAUGUUUUAAUAGCUGAGGAUAUACGGGUGAAAACAGCAUAGUAGAAGGCAGGUAUA [SameState1 Malc#7] | 27.6 nM
11 | CAGGACAUAGGAUAGGAUAUAUGAAUAAUUACAUGAGGAUCACCCAUGUCCAUUUAUAUGGGAACAUAGAAGGGUUGUAGUUAUG [Mat - Same state - Malcolm Mod - D143] | 515 nM
12 | AAAAAACAUGAGGAUCACCCAUGUGAAGAUAUGGAAGGAUAUACAAAGACGAAAGUCAAAGUAGAAGGUCUAAAAG [76%, Meechl 3] | 17.1 nM
13 | CGGAGACAUGAGGAUCACCCAUGUGAGAAGAGGCGAGGAUAUUGAAAGAAAGAAGAGAAAUGAGAAGGCGCGAGCC [salish99-SS1-083] | 55.3 nM
14 | GAAAAACAUGAGGAUCACCCAUGUGUAAACAUGGGAGGAUAUACGAAGACGUAAGUCAAAGUAGAAGGCCUAAAAG [Garnet 36] | 47.1 nM
15 | AAAAAACAUGAGGAUCACCCAUGUCCUCACGUGCGAGGAUAUGGAUGGAAACCAUACUGUCCAGAAGGCGCAUGUA [EteRNA is fun!] | 230 nM
16 | CGGCUAAACGGGCAGGAUAUGUUCACUAGAACAUGAGGAUCACCCAUGUGAAACUGGCGAUAAUCGCAGAAGGGCCCGUGCACGA [Atensoin] | 17.6 nM
17 | AAUAUAUUAUUUAAGGAUAUCAUAGGAAAAACAUGAGGAUCACCCAUGUGGGAAACCUGGUCGGGUGAGAAGGUGGAUAAUAUAU [Samwise Clockwise 34 - Jieux - Same State 2] | 93.7 nM
18 | AAGAAACAUGAGGAUCACCCAUGUGAUAAUAUGGGAGGAUAUACGAAGACGAAAGACGAAGUAGAAGGCCUAUGAA [Garnet 45] | 46.9 nM
19 | AACAAUCUAUCUGAGGAUAUCAUGUCAAAGACAUGAGGAUCACCCAUGUGUAGGAAAACUACAUAUGAGAAGGCAGAUAGAUUGA [SS2 :P - 598] | 610 nM
20 | CCGAUACAUGAGGAUCACCCAUGUUAGGUAGAACAAGGAUAUCUAGAUAGAUAAAAAUAUAGAGAAGGUGUAUAAC [JR_SS001_Sub208] | 17.1 nM
21 | AAACCACAUGAGGAUCACCCAUGUAAAAAUAUGGGAGGAUAUGCGAAAAGAAACAAAGAAGCAGAAGGCCUAAAAA [75%, Ex sub1, 19] | 26.3 nM
22 | GAAAAACAUGAGGAUCACCCAUGUAGAAAUAUGGGAGGAUAUACAAAGACGAAAGUCAAAGUAGAAGGCCUGAUAG [JL S1 M-MoE mod 3] | 28.6 nM

Row | Sequence | apparent KD of MS2 coat protein
23 | GAUAGGAAGAGAGAGGAUAUCCAAAGGAAAACAUGAGGAUCACCCAUGUAAAAGGUAGGAAAUUGGGAGAAGGCUCAAGAGAGAG [salish99-ss2-075] | 11.6 nM
24 | AAUAGACAUGAGGAUCACCCAUGUGUAUAUGGGAGAGGAUAUACGGGACACAAGGGCGGAGUAGAAGGCUCGAGAC [Same Satate 1] | 68.2 nM
25 | AUAAAACAUGAGGAUCACCCAUGUCCGACAAAUCAAGGAUAUGAGAGCCAAACCAGGCUGUUAGAAGGUGAAAGAA [Edorlebere] | 154 nM
26 | AAGAAACAUGAGGAUCACCCAUGUAAGAUAAACACAGGAUAUGCGAAAAUAAACAAAUAAGCAGAAGGGUGAAAAG [Mat - Same State 1 - Tesla mod - 76] | 15.2 nM
27 | AAUAAUUAUAUGGAGGAUAUCGGUAAUAAGACAUGAGGAUCACCCAUGUAAUAAGGUUAAAUAAACGAGAAGGCCAAGGGUGAAA [JR_SS002_Sub005] | 59.7 nM
28 | CGAAAGGAGAGAGAGGAUAUCCAAAGGAAAACAUGAGGAUCACCCAUGUAGAAGGUAGGAGAUUGGGAGAAGGCUCAAGAGAGAC [salish99-ss2-148] | 24 nM
29 | AAAAAACAUGAGGAUCACCCAUGUGCAAAAUUCGCAGGAUAUUUCUCAAUUAAAUGAGAGGAAGAAGGGUGAAAAA [Nob's Hobby 27 - Jieux - Same State 1] | 21.5 nM
30 | UGAAGACAUGAGGAUCACCCAUGUGGGAAUAUGGGAGGAUAUACAAAGACGAGAGUCAGAGUAGAAGGCCUAGGAG [salish99-ss1-97] | 55.1 nM
31 | UGGAGACAUGAGGAUCACCCAUGUGAGAAGAGGCGAGGAUAUCGAAAGAAAGAAGAGAAACGAGAAGGCGCGAGAU [salish99-SS1-034] | 21 nM
32 | GAAGACAUAGUUCAGGAUAUAUGAAUAGUCACAUGAGGAUCACCCAUGUCCAUUUAUAUGGGCACAUAGAAGGGAGGUAGUUAUC [SameState2 Malc#25] | 618 nM
33 | AGCACGUGAUUGGAGGAUAUGUAGUAAGCAACAUGAGGAUCACCCAUGUCUGAGGCUGAAAAGCAGCAGAAGGCCGAUACAACCA [SS2-1.5] | 18.2 nM
34 | GAAAAACAUGAGGAUCACCCAUGUAGAAAUAUGGGAGGAUAUACGAAGUCGAAAGACAAAGUAGAAGGCCUAAAAG [Garnet 27] | 27.9 nM
35 | AGAAAACAUGAGGAUCACCCAUGUAGAAAUAUGGGAGGAUAUACAAAGACGAAAGUCAGAGUAGAAGGCCUAAAAA [salish99-SS1-085] | 14.6 nM
36 | AAGAAACAUGAGGAUCACCCAUGUAGAAAUAUGGGAGGAUAUACAAAGACGAAAGUCAAAGUAGAAGGCCUGAAAG [Mat - Same State 1 - Eli mod - 84] | 38.5 nM
37 | AAGAAACAUGAGGAUCACCCAUGUAAGAUAAACACAGGAUAUGCGAAAAGAAACAAAUAAGCAGAAGGGUGAAGAA [Mat - Same State 1 - Tesla mod - 64] | 16.3 nM
38 | AAAUAAAGGACUGAGGAUAUACCACAUGAAACAUGAGGAUCACCCAUGUUGAAAAACAGAGGGUGGUAGAAGGCAGUCCACAAAC [Same State 2.5d ( so lets mod hyphema)] | 12.5 nM
39 | AAAUAACAUGAGGAUCACCCAUGUUACGACGUUACAGGAUAUGUGGGUGAAAAUAGCAUGACAGAAGGGUACCGUA [SameState1 Malc#37] | 68.5 nM
40 | AAAGACAUAGUUCAGGAUAUGGUAAUAGUCACAUGAGGAUCACCCAUGUGCAUUUAUAUGCGCGAUCAGAAGGGAGGUAAAAAAA [SameState2 Malc#16] | 17.5 nM
41 | AAAAAACAUGAGGAUCACCCAUGUCUUCGGACGUGAGGAUAUGUACAGACUUCGGUCUGUACAGAAGGCACGAAAA [SS1 - 1035] | 22.7 nM
42 | AAUAAUUAUACGAAGGAUAUCGGUAUUAAGACAUGAGGAUCACCCAUGUAAUAUGGUUAUAUAAACGAGAAGGUCGAGGGUGAAA [JR_SS002_Sub008] | 38.6 nM
43 | AUAAAACAUGAGGAUCACCCAUGUAGAAAUAUGGGAGGAUAUACGAAGACGAAAGUCGAAGUAGAAGGCCUAAAAG [Mat - Same State 1 - Meechl mod - D116] | 27.7 nM
